Source: paper PMC1950596

Experiments:
[1] = target: Psu (polarity suppression protein), wild type, non-His-tagged (bacteriophage P4) (UniProt P05460); experiment: cross-linking
[2] = target: Psu (polarity suppression protein), wild type, non-His-tagged (bacteriophage P4) (UniProt P05460); experiment: SEC
[3] = target: Psu M6 mutant (P169V) (bacteriophage P4) (UniProt P05460); experiment: cross-linking
[4] = target: Δ-CTD10 Psu, His-tagged (pRS459, pET28b) (bacteriophage P4) (UniProt P05460); experiment: cross-linking

Q: What does the source list for “Psu (polarity suppression protein), wild type, non-His-tagged (from UniProt P05460 1-190) (natural protein)”?
A: stoichiometry N [1]: 2; stoichiometry N [2]: 3

Q: With “Psu M6 mutant (P169V) (from UniProt P05460 1-190) (natural protein)” as the substance, how does the stoichiometry N [3] read?
A: The stoichiometry N was 2.

Q: How did the stoichiometry N [4] turn out when “Δ-CTD10 Psu, His-tagged (pRS459, pET28b) (from UniProt P05460 1-180) (domain or fragment)” was run?
A: The stoichiometry N was 2.
